Sequences and labels used below:
T1: recombinant full-length Apaf-1XL (UniProt O14727-1 1-1248)
T1 construct: Oligomerised into the apoptosome with bovine cytochrome c (Sigma) and dATP/MgCl2; also called oligomerized Apaf-1; Apaf-1 apoptosome; source: Hi-five or Sf21 cells, baculovirus, purified
T1 sequence (looked up): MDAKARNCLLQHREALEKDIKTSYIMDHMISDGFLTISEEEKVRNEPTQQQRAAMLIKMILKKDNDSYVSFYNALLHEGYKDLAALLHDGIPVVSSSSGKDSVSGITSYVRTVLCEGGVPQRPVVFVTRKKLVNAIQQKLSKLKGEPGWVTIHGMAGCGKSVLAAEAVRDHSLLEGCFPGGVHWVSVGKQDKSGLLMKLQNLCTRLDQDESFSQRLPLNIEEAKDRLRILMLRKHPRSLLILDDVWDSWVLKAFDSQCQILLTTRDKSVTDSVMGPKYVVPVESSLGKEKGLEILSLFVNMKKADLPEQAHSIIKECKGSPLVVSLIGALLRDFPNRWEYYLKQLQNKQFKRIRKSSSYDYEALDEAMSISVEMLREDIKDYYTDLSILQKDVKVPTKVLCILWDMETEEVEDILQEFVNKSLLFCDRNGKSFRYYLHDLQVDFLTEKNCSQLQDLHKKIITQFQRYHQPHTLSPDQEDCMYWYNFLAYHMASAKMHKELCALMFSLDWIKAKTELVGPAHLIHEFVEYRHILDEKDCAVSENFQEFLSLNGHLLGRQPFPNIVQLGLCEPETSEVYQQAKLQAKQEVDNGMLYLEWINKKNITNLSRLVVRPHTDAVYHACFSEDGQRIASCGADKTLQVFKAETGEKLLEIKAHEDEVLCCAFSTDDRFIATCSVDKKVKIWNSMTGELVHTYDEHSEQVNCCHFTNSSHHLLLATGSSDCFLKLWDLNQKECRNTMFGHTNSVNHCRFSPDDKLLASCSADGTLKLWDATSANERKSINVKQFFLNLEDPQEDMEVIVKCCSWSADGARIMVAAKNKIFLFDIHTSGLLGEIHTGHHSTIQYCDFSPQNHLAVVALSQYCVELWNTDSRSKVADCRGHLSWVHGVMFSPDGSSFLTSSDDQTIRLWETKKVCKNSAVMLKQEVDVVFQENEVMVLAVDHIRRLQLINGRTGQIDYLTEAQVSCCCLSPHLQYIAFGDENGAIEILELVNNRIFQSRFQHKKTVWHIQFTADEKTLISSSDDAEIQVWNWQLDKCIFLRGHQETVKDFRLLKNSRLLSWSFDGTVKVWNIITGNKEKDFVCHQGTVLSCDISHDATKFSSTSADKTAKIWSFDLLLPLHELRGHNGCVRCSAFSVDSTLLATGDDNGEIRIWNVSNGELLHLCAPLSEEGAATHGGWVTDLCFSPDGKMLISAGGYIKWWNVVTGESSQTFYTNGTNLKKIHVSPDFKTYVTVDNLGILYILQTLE

T2: processed two-chain caspase-9 C9-p35/p12 (UniProt P55211 1-315; P55211 316-416)
T2 construct: caspase-9, p35 (prodomain and large subunit), ends at Asp-315 (PEPD315); caspase-9, p12 small subunit with the intersubunit linker, begins after Asp-315; Purified on Ni2+-NTA; also called processed C9; cleaved C9; source: E. coli BL21(DE3)pLysS, wild-type ProC9 overexpressed and autocleaved at Asp-315, purified (Ni2+-NTA, Mono-Q)
T2 sequence (looked up) 1: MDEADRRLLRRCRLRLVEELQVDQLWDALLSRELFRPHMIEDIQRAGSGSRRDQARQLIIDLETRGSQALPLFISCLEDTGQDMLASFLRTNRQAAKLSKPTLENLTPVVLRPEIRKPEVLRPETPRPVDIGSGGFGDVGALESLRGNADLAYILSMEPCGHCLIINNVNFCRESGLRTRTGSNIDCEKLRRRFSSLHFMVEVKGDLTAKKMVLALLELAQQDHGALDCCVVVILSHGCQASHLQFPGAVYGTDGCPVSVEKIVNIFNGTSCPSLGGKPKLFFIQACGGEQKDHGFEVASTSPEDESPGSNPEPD
T2 sequence (looked up) 2: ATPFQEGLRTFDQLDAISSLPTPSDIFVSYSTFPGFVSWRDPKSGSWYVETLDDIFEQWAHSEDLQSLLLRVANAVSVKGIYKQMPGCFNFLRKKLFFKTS

B1: Apaf-1 NOD protein (127-530) (domain or fragment, UniProt O14727 127-530, looked up)
chain: VTRKKLVNAIQQKLSKLKGEPGWVTIHGMAGCGKSVLAAEAVRDHSLLEGCFPGGVHWVSVGKQDKSGLLMKLQNLCTRLDQDESFSQRLPLNIEEAKDRLRILMLRKHPRSLLILDDVWDSWVLKAFDSQCQILLTTRDKSVTDSVMGPKYVVPVESSLGKEKGLEILSLFVNMKKADLPEQAHSIIKECKGSPLVVSLIGALLRDFPNRWEYYLKQLQNKQFKRIRKSSSYDYEALDEAMSISVEMLREDIKDYYTDLSILQKDVKVPTKVLCILWDMETEEVEDILQEFVNKSLLFCDRNGKSFRYYLHDLQVDFLTEKNCSQLQDLHKKIITQFQRYHQPHTLSPDQEDCMYWYNFLAYHMASAKMHKELCALMFSLDWIKAKTELVGPAHLIHEFVEYR
notes: aa 127–530); Oligomerised with dATP/MgCl2; also called T7-NOD; NOD apoptosome complexes; source: E. coli BL21(DE3)pLysS, purified (Ni2+-NTA, Mono-Q; MBP removed with TEV protease, negative selection on Ni2+-NTA beads; not shown: MBP, N-terminal, cleaved; His6, internal (between MBP and NOD), cleaved
B2: C9 prodomain (domain or fragment)
chain: MDEADRRLLRRCRLRLVEELQVDQLWDALLSRELFRPHMIEDIQRAGSGSRRDQARQLIIDLETRGSQALPLFISCLEDTGQDMLASFLRTNRQAAKLSKPTLENLTPVVLRPEIRKPEVLRPETPRPVDIGSGGFG
B3: C9-p35/p12-CIVSM (enzyme)
chain 1: T2 sequence (looked up) 1
chain 2: T2 sequence (looked up) 2 with G87C, C88I, F89V, N90S, F91M
notes: caspase-9, p35 (prodomain and large subunit), ends at Asp-315; caspase-9, p12 small subunit, GCFNF dimer motif replaced by the caspase-3 motif CIVSM; Homodimer by SEC-MALS; also called GCFNF→CIVSM; source: E. coli BL21(DE3)pLysS, ProC9-CIVSM fully processed during expression, purified (Ni2+-NTA, Mono-Q); copies: 2 + 2
B4: biotinylated Apaf-1 CARD-LZ-Avi (domain or fragment)
chain: not shown
modifications: biotin on the AviTag (BirA)
notes: Apaf-1 CARD (1-137); GCN4 leucine zipper, C-terminal to the CARD, followed by the AviTag and the His6-tag; Cloned into pRSF-Duet1; also called Apaf-1 CARDs; source: E. coli BL21(DE3)pLysS, purified (Ni2+-NTA, Mono-Q), biotinylated with BirA, avidin column

Data set [1] deals with the molecule itself. In words: SEC; Apaf-1 NOD (1.5 μM) and ΔPro-C9-TM (80 nM) with dATP/MgCl2 (2 mM each), 30 min 37 °C; Superose-6 in 20 mM HEPES, 50 mM NaCl, 10 mM DTT, pH 8.0; fractions immunoblotted with anti-T7. (In general: In gel filtration, larger molecules generally elute earlier.)
For data set [2], the target named is B4. Put plainly: SPR; biotinylated Apaf-1 CARD-LZ-Avi immobilised on an SA chip; C9 proteins 125 nM-2 μM as analytes; 0.01 M HEPES, 0.15 M NaCl, 3 mM EDTA, 0.05% P20; room temperature; affinities by equilibrium analysis, kinetics fitted to a two-state model. The following applies: both partners purified.
Data set [3] concerns the molecule itself. Put plainly: SEC-MALS; recombinant C9 proteins 200 μl at 40 μM; 20 mM HEPES, 50 mM NaCl, pH 8.0; 0.5 ml/min.
The target of data set [4] is T1, recombinant full-length Apaf-1XL. In words: SEC; Apaf-1 (300 nM) with C9 protein (200 nM) and Cc/dATP, 30 min 37 °C; Superose-6 gel filtration, pooled fractions precipitated and immunoblotted for Apaf-1 and C9. Conditions: both partners purified.
Data set [5] has as its target T2, processed two-chain caspase-9 C9-p35/p12. In words: SPR; biotinylated Apaf-1 CARD-LZ-Avi immobilised on an SA chip; C9 proteins 125 nM-2 μM as analytes; 0.01 M HEPES, 0.15 M NaCl, 3 mM EDTA, 0.05% P20; room temperature; affinities by equilibrium analysis, kinetics fitted to a two-state model. The following applies: both partners purified.
The data set “C9-p35/p12-CIVSM” deals with B3. The description is as above. Conditions: both partners purified.

Experimental findings from paper PMC5123071, “The Apaf-1 apoptosome induces formation of caspase-9 homo- and heterodimers with distinct activities” (Nature Communications, 2016) are described below.

Residue numbers refer to the chain shown, from its start.

The term Kd denotes a measure of binding affinity in units of concentration. The low end stands for higher affinity, the high end for lower affinity. The term stoichiometry N denotes the number of molecules, sites or subunits per partner or assembly.

As to B1, the binding result in data set [1] was “binds”.

Consider B2, for which the Kd in data set [2] worked out at 41800 nM.

Regarding B3, in data set [3], the “stoichiometry N” value was determined as 2. Besides, in data set [4], the binding result is “binds”.

With B4, the Kd is 388 nM in data set [5] and 68 nM with C9-p35/p12-CIVSM.
